Test results from PMC11514458.
Substitutions are numbered along the chain they refer to.

Legend:
[1] = molecular target: T1, BCDX2 complex (human, UniProt O15315;O43502;O75771;O43543 1-384;1-376;1-328;1-280); test: EMSA; 10 nt sufficient within reversed fork; EMSA: 20 mM Tris-HCl pH 7.5, 2 mM MgCl2, 2 mM ATP, 37 C, 20 nM DNA, glutaraldehyde fixation; stopped-flow: 25 mM Tris-HCl pH 7.5, 5 mM MgCl2, 50 mM KCl, 2 mM ATP, 0.5 mM EDTA, 10% glycerol, 37 C; BLI: 50 mM Tris-HCl pH 7.5, 2 mM ATP, 50 mM KCl, 5 mM MgCl2, 0.05% Tween 20, room temperature; settings: protein: recombinant; tags: Strep-tag and His-tag (XRCC2 N-terminal His); copies: 1;1;1;1; label: 3' Cy3 on strand 1; reversed fork of 4 strands, 3' ssDNA tail 10 nt
T1 sequence 1: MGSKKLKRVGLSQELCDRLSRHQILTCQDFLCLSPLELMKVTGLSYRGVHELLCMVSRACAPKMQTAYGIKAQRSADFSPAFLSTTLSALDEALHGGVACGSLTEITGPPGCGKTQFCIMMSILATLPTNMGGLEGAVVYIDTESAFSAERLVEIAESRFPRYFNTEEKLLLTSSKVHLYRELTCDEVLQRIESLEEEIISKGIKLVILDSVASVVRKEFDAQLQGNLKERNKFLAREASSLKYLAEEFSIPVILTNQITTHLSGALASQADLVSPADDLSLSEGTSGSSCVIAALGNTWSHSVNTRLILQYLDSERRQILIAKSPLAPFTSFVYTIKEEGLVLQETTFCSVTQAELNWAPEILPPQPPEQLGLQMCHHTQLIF
T1 sequence 2: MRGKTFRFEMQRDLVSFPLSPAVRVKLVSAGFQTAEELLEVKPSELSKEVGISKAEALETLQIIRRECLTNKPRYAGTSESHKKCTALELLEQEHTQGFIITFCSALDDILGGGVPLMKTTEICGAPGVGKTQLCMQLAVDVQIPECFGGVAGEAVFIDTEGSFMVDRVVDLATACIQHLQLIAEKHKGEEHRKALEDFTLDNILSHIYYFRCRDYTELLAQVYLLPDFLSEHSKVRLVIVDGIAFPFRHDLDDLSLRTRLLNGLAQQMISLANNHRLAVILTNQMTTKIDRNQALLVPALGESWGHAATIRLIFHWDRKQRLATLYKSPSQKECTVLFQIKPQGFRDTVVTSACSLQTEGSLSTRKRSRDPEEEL
T1 sequence 3: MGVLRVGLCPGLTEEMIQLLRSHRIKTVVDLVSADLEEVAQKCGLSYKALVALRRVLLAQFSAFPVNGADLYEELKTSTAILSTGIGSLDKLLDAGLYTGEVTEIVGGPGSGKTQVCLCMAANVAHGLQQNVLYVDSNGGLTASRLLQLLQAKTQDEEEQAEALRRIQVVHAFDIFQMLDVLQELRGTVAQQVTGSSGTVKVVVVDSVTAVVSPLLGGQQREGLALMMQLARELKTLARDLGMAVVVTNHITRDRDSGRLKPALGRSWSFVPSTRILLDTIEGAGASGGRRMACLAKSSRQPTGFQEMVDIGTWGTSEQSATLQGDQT
T1 sequence 4: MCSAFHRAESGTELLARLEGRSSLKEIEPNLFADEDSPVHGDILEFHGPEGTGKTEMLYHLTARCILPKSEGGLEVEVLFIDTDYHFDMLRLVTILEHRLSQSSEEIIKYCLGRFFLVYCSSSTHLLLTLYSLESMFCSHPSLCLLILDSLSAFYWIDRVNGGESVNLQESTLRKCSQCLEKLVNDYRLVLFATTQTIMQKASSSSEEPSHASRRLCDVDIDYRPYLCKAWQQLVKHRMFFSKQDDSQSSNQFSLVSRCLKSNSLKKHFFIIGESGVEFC

[2] = molecular target: T2, RAD51;BCDX2 complex (human?;human, UniProt Q06609;O15315;O43502;O75771;O43543 1-339;1-384;1-376;1-328;1-280, |); test: BLI; enhanced RAD51 loading; EMSA: 20 mM Tris-HCl pH 7.5, 2 mM MgCl2, 2 mM ATP, 37 C, 20 nM DNA, glutaraldehyde fixation; stopped-flow: 25 mM Tris-HCl pH 7.5, 5 mM MgCl2, 50 mM KCl, 2 mM ATP, 0.5 mM EDTA, 10% glycerol, 37 C; BLI: 50 mM Tris-HCl pH 7.5, 2 mM ATP, 50 mM KCl, 5 mM MgCl2, 0.05% Tween 20, room temperature; settings: protein: recombinant;recombinant; tags: ;Strep-tag and His-tag (XRCC2 N-terminal His); copies: 1;1;1;1;1; label: 3' Cy3 on strand 1; 5' biotin on strand 4; reversed fork of 4 strands, 3' ssDNA tail
[3] = molecular target: T3, DX2 complex (human, UniProt O75771;O43543 1-328;1-280); test: EMSA; strong binding; EMSA: 20 mM Tris-HCl pH 7.5, 2 mM MgCl2, 2 mM ATP, 37 C, 20 nM DNA, glutaraldehyde fixation; stopped-flow: 25 mM Tris-HCl pH 7.5, 5 mM MgCl2, 50 mM KCl, 2 mM ATP, 0.5 mM EDTA, 10% glycerol, 37 C; BLI: 50 mM Tris-HCl pH 7.5, 2 mM ATP, 50 mM KCl, 5 mM MgCl2, 0.05% Tween 20, room temperature; settings: protein: recombinant; tags: His-tag; copies: 1;1; label: internal FITC; reversed fork of 4 strands with ssDNA overhang
T3 sequence 1: T1 sequence 3
T3 sequence 2: T1 sequence 4

[4] = molecular target: T1, BCDX2 complex; test: as above; settings: protein: recombinant; tags: Strep-tag and His-tag (XRCC2 N-terminal His); copies: 1;1;1;1; label: internal FITC; reversed fork of 4 strands with ssDNA overhang
[5] = molecular target: T4, D(R266A)X2 (UniProt O75771;O43543 1-328;1-280, R266A); test: EMSA; not significantly affected; EMSA: 20 mM Tris-HCl pH 7.5, 2 mM MgCl2, 2 mM ATP, 37 C, 20 nM DNA, glutaraldehyde fixation; stopped-flow: 25 mM Tris-HCl pH 7.5, 5 mM MgCl2, 50 mM KCl, 2 mM ATP, 0.5 mM EDTA, 10% glycerol, 37 C; BLI: 50 mM Tris-HCl pH 7.5, 2 mM ATP, 50 mM KCl, 5 mM MgCl2, 0.05% Tween 20, room temperature; settings: protein: recombinant; copies: 1;1; label: internal FITC; reversed fork of 4 strands with ssDNA overhang
T4 sequence 1: T1 sequence 3 with R266A
T4 sequence 2: T1 sequence 4

[6] = molecular target: T5, DX2(R159A) (UniProt O75771;O43543 1-328;1-280, R159A); test: as above; settings: protein: recombinant; copies: 1;1; label: internal FITC; reversed fork of 4 strands with ssDNA overhang
T5 sequence 1: T1 sequence 3
T5 sequence 2: T1 sequence 4 with R159A

[7] = molecular target: T2, RAD51;BCDX2 complex; test: BLI; BCDX2 facilitates RAD51 binding; EMSA: 20 mM Tris-HCl pH 7.5, 2 mM MgCl2, 2 mM ATP, 37 C, 20 nM DNA, glutaraldehyde fixation; stopped-flow: 25 mM Tris-HCl pH 7.5, 5 mM MgCl2, 50 mM KCl, 2 mM ATP, 0.5 mM EDTA, 10% glycerol, 37 C; BLI: 50 mM Tris-HCl pH 7.5, 2 mM ATP, 50 mM KCl, 5 mM MgCl2, 0.05% Tween 20, room temperature; settings: protein: recombinant;recombinant; tags: ;Strep-tag and His-tag (XRCC2 N-terminal His); copies: 1;1;1;1;1; label: 5' biotin
[8] = molecular target: T1, BCDX2 complex; test: EMSA; efficient binding; EMSA: 20 mM Tris-HCl pH 7.5, 2 mM MgCl2, 2 mM ATP, 37 C, 20 nM DNA, glutaraldehyde fixation; stopped-flow: 25 mM Tris-HCl pH 7.5, 5 mM MgCl2, 50 mM KCl, 2 mM ATP, 0.5 mM EDTA, 10% glycerol, 37 C; BLI: 50 mM Tris-HCl pH 7.5, 2 mM ATP, 50 mM KCl, 5 mM MgCl2, 0.05% Tween 20, room temperature; settings: protein: recombinant; tags: Strep-tag and His-tag (XRCC2 N-terminal His); copies: 1;1;1;1; label: 5' FITC
[9] = molecular target: T1, BCDX2 complex; test: EMSA; significant binding; EMSA: 20 mM Tris-HCl pH 7.5, 2 mM MgCl2, 2 mM ATP, 37 C, 20 nM DNA, glutaraldehyde fixation; stopped-flow: 25 mM Tris-HCl pH 7.5, 5 mM MgCl2, 50 mM KCl, 2 mM ATP, 0.5 mM EDTA, 10% glycerol, 37 C; BLI: 50 mM Tris-HCl pH 7.5, 2 mM ATP, 50 mM KCl, 5 mM MgCl2, 0.05% Tween 20, room temperature; settings: protein: recombinant; tags: Strep-tag and His-tag (XRCC2 N-terminal His); copies: 1;1;1;1; label: 5' FITC

T2 sequence (Q06609 whole entry, one chain of several): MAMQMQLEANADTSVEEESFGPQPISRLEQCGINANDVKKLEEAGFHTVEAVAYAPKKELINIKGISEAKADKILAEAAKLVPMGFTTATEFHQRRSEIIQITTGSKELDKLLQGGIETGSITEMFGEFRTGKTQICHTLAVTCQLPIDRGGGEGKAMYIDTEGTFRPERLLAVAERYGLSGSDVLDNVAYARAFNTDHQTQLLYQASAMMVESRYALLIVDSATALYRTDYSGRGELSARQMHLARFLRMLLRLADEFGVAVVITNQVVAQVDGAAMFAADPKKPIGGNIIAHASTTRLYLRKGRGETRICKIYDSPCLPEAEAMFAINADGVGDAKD

B1: 10ntRVF (mixed)
DNA 1: GACGCTGCCGAATTCTACCAGTGCCTTGCTATTTTTTTTTT
DNA 2: ATCTGTTGTAATCGTCAAGCTTTATGCCGTT
DNA 3: GAACGGCATAAAGCTTGACGATTACAACAGATCATGGAGCTGTCTAGAGGATCCGACTATCGA
DNA 4: ATCGATAGTCGGATCCTCTAGACAGCTCCATGTAGCAAGGCACTGGTAGAATTCGGCAGCGT
- binding result [1]: binds

B2: RVF25ssDNA (mixed)
DNA 1: GACGCTGCCGAATTCTACCAGTGCCTTGCTATTTTTTTTTTTTTTTTTTTTTTTTTTTTTT
DNA 2: B1 DNA 2
DNA 3: B1 DNA 3
DNA 4: B1 DNA 4
- binding result [2]: binds

B3: RVF1 (mixed)
DNA 1: TGCCGAATTCTACCAGTGCCAGTGATGGACATCTTTGCCCACGTTGACCC
DNA 2: TGGGTCAACGTGGGCAAAGATGTCCTAGCAATGTAATCGTCTATGACGTT
DNA 3: TCGGATCCTCTAGACAGCTCCATGATCACTGGCACTGGTAGAATTCGGC
DNA 4: CAACGTCATAGACGATTACATTGCT
modifications: internal FITC at Z after nt 20 of strand 3
- binding result [3]: binds
- binding result [4]: binds
- binding result [5]: binds
- binding result [6]: binds

Binder: TTTTTTTTTTTTTTT (ssDNA) [biotin-dT15]
- binding result [7]: binds

Binder: GAATGTGTGTCTCAATC (ssDNA) [ssDNA 20mer]
- binding result [8]: binds

Binder: AGAAGAGAGCAGAGG (ssDNA) [ssDNA 15mer]
- binding result [9]: binds
